Consider nine proteins from publication PMC11407943, “Cdc14 phosphatases use an intramolecular pseudosubstrate motif to stimulate and regulate catalysis” (The Journal of Biological Chemistry, 2024).

Like-named read-outs stand apart in the source and are kept apart here.

Substrate in data set [1]: Cc1cc(=O)oc2c(F)c(OP(=O)(O)O)c(F)cc12
It is filed as biochemical. The conditions noted are these: pH 7.5; 30.0 °C. From the text:
Enzym e kcat (sec-1) KM (µM)

Substrate in data set [2]: Cc1cc(=O)oc2c(F)c(OP(=O)(O)O)c(F)cc12
The data set is described as follows: purified protein, by the assay type. As to conditions: pH 7.5; 30.0 °C.

B1: hCdc14B^1-411 (Homo sapiens) (protein)
chain: DRLCFAILYSRPKSASNVHYFSIDNELEYENFYADFGPLNLAMVYRYCCKINKKLKSITMLRKKIVHFTGSDQRKQANAAFLVGCYMVIYLGRTPEEAYRILIFGETSYIPFRDAAYGSCNFYITLLDCFHAVKKAMQYGFLNFNSFNLDEYEHYEKAENGDLNWIIPDRFIAFCGPHSRARLESGYHQHSPETYIQYFKNHNVTTIIRLNKRMYDAKRFTDAGFDHHDLFFADGSTPTDAIVKEFLDICENAEGAIAVHCKAGLGRTGTLIACYIMKHYRMTAAETIAWVRICRPGSVIGPQQQFLVMKQTNLWLEGDYFRQKLKGQENGQHRAAFSKLLSGVDDISINGVENQDQQEPEPYSDDDEINGVTQGDRLRALKSRRQSKTNAIPLT
notes: codons 1-411; N-terminal GST; expressed in E. coli
On to B1, for which the Michaelis constant (Km) in data set [1] was determined as 46 µM.

B2: ScCdc14^1-374 (Saccharomyces cerevisiae S288C) (protein)
chain: MRRSVYLDNTIEFLRGRVYLGAYDYTPEDTDELVFFTVEDAIFYNSFHLDFGPMNIGHLYRFAVIFHEILNDPENANKAVVFYSSASTRQRANAACMLCCYMILVQAWTPHQVLQPLAQVDPPFMPFRDAGYSNADFEITIQDVVYGVWRAKEKGLIDLHSFNLESYEKYEHVEFGDFNVLTPDFIAFASPQEDHPKGYLATKSSHLNQPFKSVLNFFANNNVQLVVRLNSHLYNKKHFEDIGIQHLDLIFEDGTCPDLSIVKNFVGAAETIIKRGGKIAVHCKAGLGRTGCLIGAHLIYTYGFTANECIGFLRFIRPGMVVGPQQHWLYLHQNDFREWKYTTRISLKPSEAIGGLYPLISLEEYRLQKKKLKD
Take B2: in data set [1], the Michaelis constant (Km) stood at 0.76 µM.

B3: ScCdc14^1-449 (Saccharomyces cerevisiae S288C) (protein)
chain: MRRSVYLDNTIEFLRGRVYLGAYDYTPEDTDELVFFTVEDAIFYNSFHLDFGPMNIGHLYRFAVIFHEILNDPENANKAVVFYSSASTRQRANAACMLCCYMILVQAWTPHQVLQPLAQVDPPFMPFRDAGYSNADFEITIQDVVYGVWRAKEKGLIDLHSFNLESYEKYEHVEFGDFNVLTPDFIAFASPQEDHPKGYLATKSSHLNQPFKSVLNFFANNNVQLVVRLNSHLYNKKHFEDIGIQHLDLIFEDGTCPDLSIVKNFVGAAETIIKRGGKIAVHCKAGLGRTGCLIGAHLIYTYGFTANECIGFLRFIRPGMVVGPQQHWLYLHQNDFREWKYTTRISLKPSEAIGGLYPLISLEEYRLQKKKLKDDKRVAQNNIEGELRDLTMTPPSNGHGALSARNSSQPSTANNGSNSFKSSAVPQTSPGQPRKGQNGSNTIEDINNN
With B3, the values for the Michaelis-Menten constant (Km) in data set [2] and in data set [1] were 25 µM and 8.4 µM, respectively.

B4: ScCdc14^Q432A (Saccharomyces cerevisiae S288C; Q432A) (protein)
chain: MRRSVYLDNTIEFLRGRVYLGAYDYTPEDTDELVFFTVEDAIFYNSFHLDFGPMNIGHLYRFAVIFHEILNDPENANKAVVFYSSASTRQRANAACMLCCYMILVQAWTPHQVLQPLAQVDPPFMPFRDAGYSNADFEITIQDVVYGVWRAKEKGLIDLHSFNLESYEKYEHVEFGDFNVLTPDFIAFASPQEDHPKGYLATKSSHLNQPFKSVLNFFANNNVQLVVRLNSHLYNKKHFEDIGIQHLDLIFEDGTCPDLSIVKNFVGAAETIIKRGGKIAVHCKAGLGRTGCLIGAHLIYTYGFTANECIGFLRFIRPGMVVGPQQHWLYLHQNDFREWKYTTRISLKPSEAIGGLYPLISLEEYRLQKKKLKDDKRVAQNNIEGELRDLTMTPPSNGHGALSARNSSQPSTANNGSNSFKSSAVPQTSPGAPRKGQNGSNTIEDINNN
Consider B4, for which, in data set [1], the Michaelis constant (Km) came to 0.72 µM.

B5: ScCdc14^Q432N (Saccharomyces cerevisiae S288C; Q432N) (protein)
chain: MRRSVYLDNTIEFLRGRVYLGAYDYTPEDTDELVFFTVEDAIFYNSFHLDFGPMNIGHLYRFAVIFHEILNDPENANKAVVFYSSASTRQRANAACMLCCYMILVQAWTPHQVLQPLAQVDPPFMPFRDAGYSNADFEITIQDVVYGVWRAKEKGLIDLHSFNLESYEKYEHVEFGDFNVLTPDFIAFASPQEDHPKGYLATKSSHLNQPFKSVLNFFANNNVQLVVRLNSHLYNKKHFEDIGIQHLDLIFEDGTCPDLSIVKNFVGAAETIIKRGGKIAVHCKAGLGRTGCLIGAHLIYTYGFTANECIGFLRFIRPGMVVGPQQHWLYLHQNDFREWKYTTRISLKPSEAIGGLYPLISLEEYRLQKKKLKDDKRVAQNNIEGELRDLTMTPPSNGHGALSARNSSQPSTANNGSNSFKSSAVPQTSPGNPRKGQNGSNTIEDINNN
In the case of B5, the Michaelis-Menten constant (Km) in data set [1] stood at 0.92 µM.

B6: ScCdc14^Q432E (Saccharomyces cerevisiae S288C; Q432E) (protein)
chain: MRRSVYLDNTIEFLRGRVYLGAYDYTPEDTDELVFFTVEDAIFYNSFHLDFGPMNIGHLYRFAVIFHEILNDPENANKAVVFYSSASTRQRANAACMLCCYMILVQAWTPHQVLQPLAQVDPPFMPFRDAGYSNADFEITIQDVVYGVWRAKEKGLIDLHSFNLESYEKYEHVEFGDFNVLTPDFIAFASPQEDHPKGYLATKSSHLNQPFKSVLNFFANNNVQLVVRLNSHLYNKKHFEDIGIQHLDLIFEDGTCPDLSIVKNFVGAAETIIKRGGKIAVHCKAGLGRTGCLIGAHLIYTYGFTANECIGFLRFIRPGMVVGPQQHWLYLHQNDFREWKYTTRISLKPSEAIGGLYPLISLEEYRLQKKKLKDDKRVAQNNIEGELRDLTMTPPSNGHGALSARNSSQPSTANNGSNSFKSSAVPQTSPGEPRKGQNGSNTIEDINNN
As to B6, the Michaelis constant (Km) in data set [1] is 1.11 µM.

B7: ScCdc14^P433A/K435A (Saccharomyces cerevisiae S288C; K435A/P433A) (protein)
chain: MRRSVYLDNTIEFLRGRVYLGAYDYTPEDTDELVFFTVEDAIFYNSFHLDFGPMNIGHLYRFAVIFHEILNDPENANKAVVFYSSASTRQRANAACMLCCYMILVQAWTPHQVLQPLAQVDPPFMPFRDAGYSNADFEITIQDVVYGVWRAKEKGLIDLHSFNLESYEKYEHVEFGDFNVLTPDFIAFASPQEDHPKGYLATKSSHLNQPFKSVLNFFANNNVQLVVRLNSHLYNKKHFEDIGIQHLDLIFEDGTCPDLSIVKNFVGAAETIIKRGGKIAVHCKAGLGRTGCLIGAHLIYTYGFTANECIGFLRFIRPGMVVGPQQHWLYLHQNDFREWKYTTRISLKPSEAIGGLYPLISLEEYRLQKKKLKDDKRVAQNNIEGELRDLTMTPPSNGHGALSARNSSQPSTANNGSNSFKSSAVPQTSPGQARAGQNGSNTIEDINNN
B7: in data set [1], the Km was 1.0 µM.

B8: ScCdc14^S429E (Saccharomyces cerevisiae S288C; S429E) (protein)
chain: MRRSVYLDNTIEFLRGRVYLGAYDYTPEDTDELVFFTVEDAIFYNSFHLDFGPMNIGHLYRFAVIFHEILNDPENANKAVVFYSSASTRQRANAACMLCCYMILVQAWTPHQVLQPLAQVDPPFMPFRDAGYSNADFEITIQDVVYGVWRAKEKGLIDLHSFNLESYEKYEHVEFGDFNVLTPDFIAFASPQEDHPKGYLATKSSHLNQPFKSVLNFFANNNVQLVVRLNSHLYNKKHFEDIGIQHLDLIFEDGTCPDLSIVKNFVGAAETIIKRGGKIAVHCKAGLGRTGCLIGAHLIYTYGFTANECIGFLRFIRPGMVVGPQQHWLYLHQNDFREWKYTTRISLKPSEAIGGLYPLISLEEYRLQKKKLKDDKRVAQNNIEGELRDLTMTPPSNGHGALSARNSSQPSTANNGSNSFKSSAVPQTEPGQPRKGQNGSNTIEDINNN
For B8, the Km in data set [2] was 3.3 µM.

B9: hCdc14B^Q390A (Homo sapiens; Q390A) (protein)
chain: MSREGAGAALVAEVIKDRLCFAILYSRPKSASNVHYFSIDNELEYENFYADFGPLNLAMVYRYCCKINKKLKSITMLRKKIVHFTGSDQRKQANAAFLVGCYMVIYLGRTPEEAYRILIFGETSYIPFRDAAYGSCNFYITLLDCFHAVKKAMQYGFLNFNSFNLDEYEHYEKAENGDLNWIIPDRFIAFCGPHSRARLESGYHQHSPETYIQYFKNHNVTTIIRLNKRMYDAKRFTDAGFDHHDLFFADGSTPTDAIVKEFLDICENAEGAIAVHCKAGLGRTGTLIACYIMKHYRMTAAETIAWVRICRPGSVIGPQQQFLVMKQTNLWLEGDYFRQKLKGQENGQHRAAFSKLLSGVDDISINGVENQDQQEPEPYSDDDEINGVTAGDRLRALKSRRQSKTNAIPLT
notes: as for B1
With B9, the Km in data set [1] is 2.88 µM.
